Measured values published in patent US20120121581A1 (XOMA TECHNOLOGY, published 2012).

B1: ABT02 (antibody, V domains shown)
VH: QVQLVQSGGGVVHPGRSLKLSCAGSGFTFSDYDMHWVRQAPGKGLEWVAVMWFDGTEKYSAESVKGRFTISRDNSKNTLFLQMNSLRADDTAVYYCAREPDWLLWGDRGALDVWGQGTTVTVSS
VL: DIVMTQSPSTLSASVGDRVTITCWASQSISSRLAWYQQKPGKAPKLLMYEATSLGSGVPSRFSGSGSGTEFTLTISSLQPDDFAAYYCQHYDTYPYTFGQGTKLEIK
B2: ABT01 (antibody, V domains shown)
VH: QVQLQQSGGGLVQPGGSLRLSCAASGFTFKYDYMYWIRQAPGKGLEWVATISDGGSYTYYSDSVEGRFTTSRDNSKNTLYLQMNSLRAEDTAIYYCSRYRYDDAMDYWGQGTLVTVSS
VL: EIVLTQSPATLSLSPGERATISCRASESVDSYGHSFMQWYQQKPGQAPRLLIYRASNLEPGIPARFSGSGSGTDFTLTISSLEPEDFAVYYCQQGNEVPFTFGQGTKVEIK
B3: ABT03 (antibody, V domains shown)
VH: QVQLQQSGGGLVQPGGSLRLSCAASGFTFSNYAMTWVRQAPGKGLEWVSSISVGGSDTYYADSVKGRFTVSRDNSKNTLLLQMNSLRAEDTAVYYCAKVRTKYCSSLSCFAGFDSWGQGTRVTVSS
VL: DVVMTQSPSSLSASVGDRVTITCRASQSISSYLHWYQQKPGKAPTLLISDASSSQSGVPSRFSGSRFGTDFTLTISSLQPEDFATYYCQQSYSTRALTFGGGTKVEIK

Assays:
Assay in all cases: ELISA, toxin domain coated on plate
[1] = target: BoNT/A light-chain heavy-chain N-terminus (LCHN) domain (UniProt P0DPI0 1-870)
Chain of BoNT/A light-chain heavy-chain N-terminus (LCHN) domain (P0DPI0 1-870 limits assumed): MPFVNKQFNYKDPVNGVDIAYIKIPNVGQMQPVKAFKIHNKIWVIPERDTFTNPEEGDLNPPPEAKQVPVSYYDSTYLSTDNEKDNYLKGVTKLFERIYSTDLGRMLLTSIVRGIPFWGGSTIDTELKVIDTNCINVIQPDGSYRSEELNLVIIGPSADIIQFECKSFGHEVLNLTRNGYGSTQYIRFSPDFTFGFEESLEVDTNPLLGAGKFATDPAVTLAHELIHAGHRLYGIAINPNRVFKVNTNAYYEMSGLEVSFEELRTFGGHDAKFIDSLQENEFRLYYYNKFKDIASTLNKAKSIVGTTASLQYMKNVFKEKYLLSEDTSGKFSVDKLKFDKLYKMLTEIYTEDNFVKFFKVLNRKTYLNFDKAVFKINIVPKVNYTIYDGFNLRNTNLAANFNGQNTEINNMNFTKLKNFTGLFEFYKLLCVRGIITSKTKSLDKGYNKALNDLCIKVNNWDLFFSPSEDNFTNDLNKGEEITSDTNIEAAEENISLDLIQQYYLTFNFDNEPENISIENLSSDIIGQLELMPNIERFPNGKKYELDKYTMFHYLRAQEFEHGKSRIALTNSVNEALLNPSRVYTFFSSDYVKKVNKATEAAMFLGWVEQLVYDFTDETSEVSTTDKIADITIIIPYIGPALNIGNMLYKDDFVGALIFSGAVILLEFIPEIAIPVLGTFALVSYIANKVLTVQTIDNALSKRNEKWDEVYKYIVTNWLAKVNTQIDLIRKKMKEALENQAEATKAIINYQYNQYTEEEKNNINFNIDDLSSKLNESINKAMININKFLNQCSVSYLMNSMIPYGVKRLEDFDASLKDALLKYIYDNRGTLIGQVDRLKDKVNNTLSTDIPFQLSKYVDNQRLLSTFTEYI

[2] = target: BoNT/A heavy-chain N-terminus (HCN) domain (UniProt P0DPI0 871-1092)
Chain of BoNT/A heavy-chain N-terminus (HCN) domain (P0DPI0 871-1092 limits assumed): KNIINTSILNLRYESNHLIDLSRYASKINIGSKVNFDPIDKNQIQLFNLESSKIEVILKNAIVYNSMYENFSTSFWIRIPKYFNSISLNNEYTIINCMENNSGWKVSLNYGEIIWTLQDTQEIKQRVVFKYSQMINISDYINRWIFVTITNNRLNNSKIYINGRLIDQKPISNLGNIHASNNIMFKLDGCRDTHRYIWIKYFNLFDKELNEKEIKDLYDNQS

[3] = target: BoNT/A heavy-chain C-terminus (HCC) domain (UniProt P0DPI0 1093-1296)
Chain of BoNT/A heavy-chain C-terminus (HCC) domain (P0DPI0 1093-1296 limits assumed): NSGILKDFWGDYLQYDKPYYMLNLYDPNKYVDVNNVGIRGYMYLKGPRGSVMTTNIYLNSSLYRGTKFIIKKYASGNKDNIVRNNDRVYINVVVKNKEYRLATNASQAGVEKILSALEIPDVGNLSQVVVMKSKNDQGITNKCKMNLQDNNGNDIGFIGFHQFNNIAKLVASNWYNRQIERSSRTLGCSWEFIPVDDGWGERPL

Binder	binding result [1]	binding result [2]	binding result [3]
B1	no binding	no binding	–
B2	no binding	–	no binding
B3	–	no binding	no binding
